For the data set, the system named is Bacillus subtilis. Put plainly: cleaved RNA product abundance (RNA/gDNA barcode ratio) relative to median wild-type variant (ratio to wild type); higher = more accumulation of the downstream cleavage product. The conditions noted are these: cleavage site: cggR-gapA (positions -7 to +36 mutated). A digest of the protocol: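 Cleaved product abundance is expressed as the RNA:gDNA barcode ratio per construct, scaled to the median construct carrying the unmutated site. The constructs were barcoded, mutagenized RNase Y cleavage-site windows in truncated aprE or tetM reporter mRNAs integrated into the B. subtilis chromosome. Cultures grew in LB at 37°C from OD600 0.0003 to 0.3 before cleaved RNA was gel-selected and barcode-sequenced.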

The mark [1] stands for this setting: experiment (reporter, strain, medium): exp 2b: truncated aprE reporter, strain BJT200.
[2] abbreviates: experiment (reporter, strain, medium): exp 4a: truncated aprE reporter, strain BJT201 with 2% xylose (RNase J1 expressed).
[3] abbreviates: experiment (reporter, strain, medium): exp 6: tetM reporter, strain 168.

As to “ACAGACGAAGGAGCCGCAAAGAAGTTATTAAGGGATGAATAATGCCTCAATATAAAAATCTCTCACTTATTTAAA”, the “cleaved RNA product abundance” value worked out at 0.15 under setting [1] and 0.159 under setting [2].

For “ACAGACGAAGGAGCCGCAAAGAAGTTATTAAGGGATGAATAATGCCTCAATATAAATATCTCTCACTTATTTAAA”, the “cleaved RNA product abundance” value under setting [1] is 0.129, the “cleaved RNA product abundance” value under setting [2] came to 0.17 and the “cleaved RNA product abundance” value under setting [3] was determined as 0.128.

For “ACAGACGAAGGAGCCGCAAAGAAGTTATTAAGGGATGAATAATGCCTCACTATAAATATCTCTCACTTATTTAAA”, the “cleaved RNA product abundance” value under setting [2] was 0.142.

Turning to “ACAGACGAAGGAGCCGCAAAGAAGTTATTAAGGGATGAATAATGCCTCATTATAAATATCTCTCACTTATTTAAA”, the “cleaved RNA product abundance” value under setting [2] is 0.127.

“ACAGACGAAGGAGCCGCAAAGAAGTTATTAAGGGATGAATAATGCCTCTATATAAATATCTCTCACTTATTTAAA”: under setting [1], the “cleaved RNA product abundance” value was 0.111.

Take “ACAGACGAAGGAGCCGCAAAGAAGTTATTAAGGGATGAATAATGGCTCAATATAAATATCTCTCACTTATTTAAA”: the “cleaved RNA product abundance” value under setting [2] stood at 0.0723.

As for “ACAGACGAAGGAGCCGCAAAGAAGTTATTAAGGGATGAATAATGTCTCAATATAAATATCTCTCACTTATTTAAA”, the “cleaved RNA product abundance” value under setting [2] was found to be 0.0823.

Regarding “ACAGACGAAGGAGCCGCAAAGAAGTTATTAAGGGATGAATAATTACTCAATATAAATATCTCTCACTTATTTAAA”, the “cleaved RNA product abundance” value under setting [1] stood at 0.0971, the “cleaved RNA product abundance” value under setting [2] is 0.137 and the “cleaved RNA product abundance” value under setting [3] came to 0.11.

As for “ACAGACGAAGGAGCCGCAAAGAAGTTATTAAGGGATGAATAATTCATCAATATAAATATCTCTCACTTATTTAAA”, the “cleaved RNA product abundance” value under setting [2] stood at 0.201.

Consider “ACAGACGAAGGAGCCGCAAAGAAGTTATTAAGGGATGAATAATTCCACAATATAAATATCTCTCACTTATTTAAA”, for which the “cleaved RNA product abundance” value under setting [2] amounted to 0.148.

Take “ACAGACGAAGGAGCCGCAAAGAAGTTATTAAGGGATGAATAATTCCGCAATATAAATATCTCTCACTTATTTAAA”: the “cleaved RNA product abundance” value under setting [2] was determined as 0.188.

“ACAGACGAAGGAGCCGCAAAGAAGTTATTAAGGGATGAATAATTCCTAAATATAAATATCTCTCACTTATTTAAA”: the “cleaved RNA product abundance” value under setting [2] stood at 0.508.

“ACAGACGAAGGAGCCGCAAAGAAGTTATTAAGGGATGAATAATTCCTCAAAATAAATATCTCTCACTTATTTAAA”: the “cleaved RNA product abundance” value under setting [2] amounted to 0.331.

Regarding “ACAGACGAAGGAGCCGCAAAGAAGTTATTAAGGGATGAATAATTCCTCAACATAAATATCTCTCACTTATTTAAA”, the “cleaved RNA product abundance” value under setting [1] stood at 0.134 and the “cleaved RNA product abundance” value under setting [2] turned out to be 0.183.

With “ACAGACGAAGGAGCCGCAAAGAAGTTATTAAGGGATGAATAATTCCTCAAGATAAATATCTCTCACTTATTTAAA”, the “cleaved RNA product abundance” value under setting [1] came to 0.146 and the “cleaved RNA product abundance” value under setting [2] is 0.256.

On to “ACAGACGAAGGAGCCGCAAAGAAGTTATTAAGGGATGAATAATTCCTCAATATAAAAATCTCTCACTTATTTAAA”, for which the “cleaved RNA product abundance” value under setting [2] stood at 0.86.

For “ACAGACGAAGGAGCCGCAAAGAAGTTATTAAGGGATGAATAATTCCTCAATATAAATATCTCTCACTTATTTAAA”, the “cleaved RNA product abundance” value reads like this: under setting [1], 0.506; under setting [2], 0.616; under setting [3], 0.494.

Take “ACAGACGAAGGAGCCGCAAAGAAGTTATTAAGGGATGAATAATTCCTCAATATAAATGTCTCTCACTTATTTAAA”: under setting [2], the “cleaved RNA product abundance” value amounted to 0.564.

Consider “ACAGACGAAGGAGCCGCAAAGAAGTTATTAAGGGATGAATAATTCCTCAATATAAATTTCTCTCACTTATTTAAA”, for which the “cleaved RNA product abundance” value under setting [2] stood at 0.625.

For “ACAGACGAAGGAGCCGCAAAGAAGTTATTAAGGGATGAATAATTCCTCAATATAATTATCTCTCACTTATTTAAA”, the “cleaved RNA product abundance” value reads like this: under setting [1], 0.298; under setting [2], 0.254.

On to “ACAGACGAAGGAGCCGCAAAGAAGTTATTAAGGGATGAATAATTCCTCAATATACATATCTCTCACTTATTTAAA”, for which the “cleaved RNA product abundance” value under setting [2] was determined as 0.498.

Take “ACAGACGAAGGAGCCGCAAAGAAGTTATTAAGGGATGAATAATTCCTCAATTTAAATATCTCTCACTTATTTAAA”: the “cleaved RNA product abundance” value amounted to 0.0889 under setting [1] and 0.0634 under setting [2].

In the case of “ACAGACGAAGGAGCCGCAAAGAAGTTATTAAGGGATGAATAATTCCTCACTATAAATATCTCTCACTTATTTAAA”, the “cleaved RNA product abundance” value runs as follows: under setting [1], 0.132; under setting [2], 0.156.

For the sequence “ACAGACGAAGGAGCCGCAAAGAAGTTATTAAGGGATGAATAATTCCTCATTATAAATATCTCTCACTTATTTAAA”, the “cleaved RNA product abundance” value under setting [1] worked out at 0.177 and the “cleaved RNA product abundance” value under setting [2] worked out at 0.306.

Turning to “ACAGACGAAGGAGCCGCAAAGAAGTTATTAAGGGATGAATAATTCCTCCATATAAATATCTCTCACTTATTTAAA”, the “cleaved RNA product abundance” value reads like this: under setting [1], 0.102; under setting [2], 0.119.

For the origin of these results see the supplement of paper PMC11780869.
